Measured values as given in the supplement of paper PMC9233669.
Variants at the floor of the assay were thinned out.

Experiments:
biotinyl-Trp-oxazolone = assay: self-aminoacylation, catalytic enhancement (BWO) (fold over background); higher = more active; k-Seq, kA / k0A0; sequences stand for … in GGGAAUGGAUCCACAUCUACGAAUUC…UUCACUGCAGACUUGACGAAGCUG
Summary of the method: (§1)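 Mutagenized RNA pools with a 21-nt variable region (0.43 μM) reacted with each biotinyl-aminoacyl-oxazolone at 2–1250 μM. Reactions ran in 50 μL HEPES/NaCl/KCl/MgCl2/CaCl2 buffer with 5% acetonitrile, pH 6.9–7.0, for 90 minutes at room temperature. Streptavidin-captured RNA was quantified by triplicate qPCR and Illumina sequencing, and per-sequence fraction reacted was fit to a pseudo-first-order model with 1000 bootstraps. Catalytic enhancement is median kA divided by the uncatalyzed rate, the low-activity peak of a bimodal Gaussian fit.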

biotinyl-Ile-oxazolone = assay: self-aminoacylation, catalytic enhancement (BIO) (fold over background); higher = more active; k-Seq, kA / k0A0; sequences stand for … in GGGAAUGGAUCCACAUCUACGAAUUC…UUCACUGCAGACUUGACGAAGCUG
Summary of the method: as §1

biotinyl-Met-oxazolone = assay: self-aminoacylation, catalytic enhancement (BMO) (fold over background); higher = more active; k-Seq, kA / k0A0; sequences stand for … in GGGAAUGGAUCCACAUCUACGAAUUC…UUCACUGCAGACUUGACGAAGCUG
Summary of the method: as §1

biotinyl-Phe-oxazolone = assay: self-aminoacylation, catalytic enhancement (BFO) (fold over background); higher = more active; k-Seq, kA / k0A0; sequences stand for … in GGGAAUGGAUCCACAUCUACGAAUUC…UUCACUGCAGACUUGACGAAGCUG
Summary of the method: as §1

biotinyl-Leu-oxazolone = assay: self-aminoacylation, catalytic enhancement (BLO) (fold over background); higher = more active; k-Seq, kA / k0A0; sequences stand for … in GGGAAUGGAUCCACAUCUACGAAUUC…UUCACUGCAGACUUGACGAAGCUG
Summary of the method: as §1

biotinyl-Val-oxazolone = assay: self-aminoacylation, catalytic enhancement (BVO) (fold over background); higher = more active; k-Seq, kA / k0A0; sequences stand for … in GGGAAUGGAUCCACAUCUACGAAUUC…UUCACUGCAGACUUGACGAAGCUG
Summary of the method: as §1

| Sequence | self-aminoacylation (biotinyl-Trp-oxazolone) | self-aminoacylation (biotinyl-Ile-oxazolone) | self-aminoacylation (biotinyl-Met-oxazolone) | self-aminoacylation (biotinyl-Phe-oxazolone) | self-aminoacylation (biotinyl-Leu-oxazolone) | self-aminoacylation (biotinyl-Val-oxazolone) |
| --- | --- | --- | --- | --- | --- | --- |
| CCUCCCUUCAAGCAAUCGGUC [Fam1B.1 aminoacylation ribozyme variant] | 8.87 | 1.2 | 0.881 | 13.8 | 1.17 | 1.13 |
| CGACACUUCAAGCAAUCGGGC [Fam1B.1 aminoacylation ribozyme variant] | 2.12 | 1.91 | 1.36 | 8.3 | 1.85 | 2.43 |
| CGACACUUCAAGCAAUCGGUA [Fam1B.1 aminoacylation ribozyme variant] | 2.9 | 1.86 | 1.44 | 2.02 | 1.41 | 1.84 |
| CGACACUUCAAGCAUUCGGUC [Fam1B.1 aminoacylation ribozyme variant] | 1.51 | 1.8 | 1.64 | 3.31 | 1.55 | 1.99 |
| CGACACUUCCAGCAAUCGGUC [Fam1B.1 aminoacylation ribozyme variant] | 1.15 | 1.56 | 1.14 | 0.915 | 1.19 | 1.49 |
| CGACAUCAAACAAUCGGUCUG [Fam1A.1 aminoacylation ribozyme variant] | 2.71 | 1.11 | 1.05 | 3.7 | 0.934 | 1.19 |
| CGACUUAAAACAAUCGGUCUG [Fam1A.1 aminoacylation ribozyme variant] | 1.06 | 1.33 | 1.48 | 1.15 | 1.26 | 1.17 |
| CGACUUCAAACAAGCGGUCUG [Fam1A.1 aminoacylation ribozyme variant] | 1.45 | 1.39 | 1.6 | 1.23 | 1.11 | 1.37 |
| CGACUUCAAAGAAUCGGUCUG [Fam1A.1 aminoacylation ribozyme variant] | 7.38 | 1.31 | 1.32 | 9.34 | 1.66 | 1.3 |
| CUAAUUCAAACAAUCCGUCUG [Fam1A.1 aminoacylation ribozyme variant] | 0.609 | 0.682 | 0.635 | 0.937 | 0.578 | 0.764 |
| CUAAUUCAAACAAUCGCUCUG [Fam1A.1 aminoacylation ribozyme variant] | 0.67 | 0.628 | 0.668 | 0.713 | 0.527 | 0.653 |
| CUAAUUCAAACAAUCGGUCAG [Fam1A.1 aminoacylation ribozyme variant] | 0.765 | 0.602 | 0.583 | 1.46 | 0.566 | 0.546 |
| CUAAUUCAAACAAUCGGUCCG [Fam1A.1 aminoacylation ribozyme variant] | 0.513 | 0.553 | 0.575 | 0.604 | 0.732 | 0.539 |
| CUAAUUCAAACAAUCGGUCUA [Fam1A.1 aminoacylation ribozyme variant] | 0.635 | 0.612 | 0.549 | 1.65 | 0.497 | 0.593 |
| CUAAUUCAAACCAUCGGUCUG [Fam1A.1 aminoacylation ribozyme variant] | 0.589 | 0.967 | 0.817 | 0.795 | 0.949 | 0.848 |
| CUAAUUCAAACUAUCGGUCUG [Fam1A.1 aminoacylation ribozyme variant] | 0.685 | 0.978 | 1.09 | 1.1 | 0.938 | 0.936 |
| CUAAUUCAAAGAAUCGGUCUG [Fam1A.1 aminoacylation ribozyme variant] | 0.78 | 0.805 | 0.742 | 0.767 | 0.806 | 0.842 |
| CUAAUUCAUACAAUCGGUCUG [Fam1A.1 aminoacylation ribozyme variant] | 0.52 | 0.767 | 0.637 | 0.621 | 0.594 | 0.77 |
| CUAAUUCUAACAAUCGGUCUG [Fam1A.1 aminoacylation ribozyme variant] | 0.474 | 0.751 | 0.652 | 0.731 | 0.624 | 0.714 |
| CUAAUUGAAACAAUCGGUCUG [Fam1A.1 aminoacylation ribozyme variant] | 0.64 | 0.78 | 0.944 | 0.706 | 0.752 | 0.775 |
| CUACACUUCAAGCAAUCGGUA [Fam1B.1 aminoacylation ribozyme variant] | 0.846 | 0.739 | 0.709 | 1.37 | 0.755 | 0.65 |
| CUACACUUCAAGCAAUCGGUU [Fam1B.1 aminoacylation ribozyme variant] | 7.05 | 1.29 | 1.47 | 9.78 | 1.46 | 1.27 |
| CUACACUUCAGGCAAUCGGUC [Fam1B.1 aminoacylation ribozyme variant] | 0.839 | 1 | 1.01 | 1.49 | 0.97 | 1.01 |
| CUACACUUCCAGCAAUCGGUC [Fam1B.1 aminoacylation ribozyme variant] | 0.707 | 1.07 | 0.787 | 0.865 | 1.1 | 1.07 |
| CUACAUAAAACAAUCGGUCUG [Fam1A.1 aminoacylation ribozyme variant] | 0.539 | 0.808 | 0.934 | 0.674 | 0.738 | 0.799 |
| CUACAUCAAACAAUCCGUCUG [Fam1A.1 aminoacylation ribozyme variant] | 0.615 | 0.905 | 0.759 | 0.983 | 0.755 | 0.877 |

| Sequence | self-aminoacylation (biotinyl-Trp-oxazolone) | self-aminoacylation (biotinyl-Ile-oxazolone) | self-aminoacylation (biotinyl-Met-oxazolone) | self-aminoacylation (biotinyl-Phe-oxazolone) | self-aminoacylation (biotinyl-Leu-oxazolone) | self-aminoacylation (biotinyl-Val-oxazolone) |
| --- | --- | --- | --- | --- | --- | --- |
| CUACAUCAAACAAUCGGUCUA [Fam1A.1 aminoacylation ribozyme variant] | 0.755 | 0.669 | 0.802 | 1.61 | 0.58 | 0.922 |
| CUACAUCGAACAAUCGGUCUG [Fam1A.1 aminoacylation ribozyme variant] | 1.17 | 0.909 | 0.922 | 1.04 | 0.946 | 0.942 |
| CUACAUGAAACAAUCGGUCUG [Fam1A.1 aminoacylation ribozyme variant] | 0.772 | 0.828 | 0.868 | 0.716 | 0.721 | 0.803 |
| CUACCUCAAACAAACGGUCUG [Fam1A.1 aminoacylation ribozyme variant] | 0.615 | 0.919 | 0.85 | 1.33 | 1.08 | 1.03 |
| CUACCUCAAACAAUAGGUCUG [Fam1A.1 aminoacylation ribozyme variant] | 0.691 | 0.959 | 0.838 | 1.08 | 0.846 | 1 |
| CUACCUCAAACAAUCGGACUG [Fam1A.1 aminoacylation ribozyme variant] | 1.05 | 0.872 | 0.915 | 1.27 | 0.614 | 0.833 |
| CUACCUCAAACAAUCGGUCGG [Fam1A.1 aminoacylation ribozyme variant] | 1.78 | 1.28 | 1.5 | 1.56 | 1.55 | 1.25 |
| CUACCUCAAACAAUCGGUUUG [Fam1A.1 aminoacylation ribozyme variant] | 1.56 | 0.904 | 0.938 | 2.48 | 0.715 | 1.16 |
| CUACCUCAAACAAUCGUUCUG [Fam1A.1 aminoacylation ribozyme variant] | 0.863 | 0.711 | 0.525 | 0.62 | 0.588 | 0.672 |
| CUACCUCAACCAAUCGGUCUG [Fam1A.1 aminoacylation ribozyme variant] | 0.886 | 0.766 | 0.811 | 1.08 | 0.671 | 0.891 |
| CUACCUCUAACAAUCGGUCUG [Fam1A.1 aminoacylation ribozyme variant] | 0.565 | 0.8 | 0.915 | 0.97 | 0.919 | 0.739 |
| CUACGUCAAACAAUCGGUCAG [Fam1A.1 aminoacylation ribozyme variant] | 0.909 | 0.855 | 0.917 | 0.761 | 1.12 | 0.797 |
| CUACGUCAAACAAUCGUUCUG [Fam1A.1 aminoacylation ribozyme variant] | 0.856 | 0.789 | 0.854 | 0.508 | 0.822 | 0.813 |
| CUACGUCAAACAAUGGGUCUG [Fam1A.1 aminoacylation ribozyme variant] | 1.18 | 1.38 | 1.22 | 2.25 | 1.62 | 1.35 |
| CUACGUCAAACAGUCGGUCUG [Fam1A.1 aminoacylation ribozyme variant] | 1.14 | 1.14 | 1.25 | 3.92 | 1.75 | 1.52 |
| CUACGUCAUACAAUCGGUCUG [Fam1A.1 aminoacylation ribozyme variant] | 0.994 | 1.1 | 1.1 | 1.1 | 1.27 | 1.09 |
| CUACUACAAACAACCGGUCUG [Fam1A.1 aminoacylation ribozyme variant] | 0.954 | 1.19 | 0.601 | 1.12 | 0.845 | 1.14 |
| CUACUACAAACAAGCGGUCUG [Fam1A.1 aminoacylation ribozyme variant] | 0.883 | 1.11 | 1.1 | 0.606 | 1.25 | 1.2 |
| CUACUACAAACAAUAGGUCUG [Fam1A.1 aminoacylation ribozyme variant] | 0.456 | 0.826 | 0.635 | 0.827 | 0.718 | 0.94 |
| CUACUACAAACAAUCCGUCUG [Fam1A.1 aminoacylation ribozyme variant] | 0.855 | 0.717 | 0.728 | 0.545 | 0.68 | 0.832 |
| CUACUACAAACAAUCGGUCUC [Fam1A.1 aminoacylation ribozyme variant] | 0.673 | 0.647 | 0.53 | 1.05 | 0.418 | 0.59 |
| CUACUACAAACAAUGGGUCUG [Fam1A.1 aminoacylation ribozyme variant] | 1.69 | 1.07 | 1.37 | 0.955 | 1.15 | 1.14 |
| CUACUACAAACUAUCGGUCUG [Fam1A.1 aminoacylation ribozyme variant] | 0.717 | 0.869 | 0.949 | 0.752 | 0.713 | 0.839 |
| CUACUCCAAACAAACGGUCUG [Fam1A.1 aminoacylation ribozyme variant] | 0.918 | 0.816 | 0.531 | 1.09 | 0.71 | 0.981 |
| CUACUCCAAACAAUCGAUCUG [Fam1A.1 aminoacylation ribozyme variant] | 0.384 | 0.704 | 0.48 | 0.831 | 0.533 | 0.661 |
